The target of data set [1] is T1, L-selectin (LS-Rg) (Homo sapiens, UniProt P14151 P14151:39-332).
T1 chain: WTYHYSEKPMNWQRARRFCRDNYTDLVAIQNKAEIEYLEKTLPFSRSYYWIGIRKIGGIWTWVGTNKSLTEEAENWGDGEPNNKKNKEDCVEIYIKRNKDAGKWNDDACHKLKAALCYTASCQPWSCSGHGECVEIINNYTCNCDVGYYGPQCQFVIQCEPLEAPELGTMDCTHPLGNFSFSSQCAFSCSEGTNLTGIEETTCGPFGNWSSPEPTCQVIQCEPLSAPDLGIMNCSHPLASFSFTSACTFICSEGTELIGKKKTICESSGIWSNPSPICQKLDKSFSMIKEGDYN
Put plainly: filter; room temp; 9.6 nM at 37 C. The conditions noted are these: tags: human IgG2 Fc fusion (provided by A. Varki); label: 32P.

Data set [2] concerns the target T2, Ulex europaeus lectin UEA-II (Ulex europaeus, UniProt P22973 P22973:1-249).
T2 sequence: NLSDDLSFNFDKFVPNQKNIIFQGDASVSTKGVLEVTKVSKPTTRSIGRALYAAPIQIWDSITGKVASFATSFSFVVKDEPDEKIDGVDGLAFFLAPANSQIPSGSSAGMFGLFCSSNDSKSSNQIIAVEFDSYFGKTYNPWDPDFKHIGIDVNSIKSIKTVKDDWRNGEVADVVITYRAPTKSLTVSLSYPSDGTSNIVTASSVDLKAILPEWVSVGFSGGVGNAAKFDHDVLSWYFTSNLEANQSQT
Description: filter; HBSS, room temp. The conditions noted are these: tags: E Y Laboratories; label: 32P. On the procedure: (§1) The specifically eluted fraction was processed for use in the following round. Fractions eluted from immobilized WGA were heated at 90° C. for 5 minutes in 1% SDS, 2% β-mercaptoethanol and extracted with phenol/chloroform. RNA was reverse transcribed into cDNA by AMV reverse transcriptase at 48° C. for 60 min in 50 mM Tris-Cl pH (8.3), 60 mM NaCl, 6 mM Mg(OAc)_2, 10 mM DTT, 100 pmol DNA primer, 0.4 mM each of dNTPs, and 0.4 unit/µl AMV RT. […] C) Nitrocellulose Filter Partitioning As described in SELEX Patent Applications, the nitrocellulose filter partitioning method was used to determine the affinity of RNA ligands for WGA and for other proteins. Filter discs (nitrocellulose/cellulose acetate mixed matrix, 0.45 µm pore size, Millipore; or pure nitrocellulose, 0.45 µm pore size, Bio-Rad) were placed on a vacuum manifold and washed with 4 ml of HBSS buffer under vacuum. Reaction mixtures, containing ^32P labeled RNA pools and unlabeled WGA, were incubated in HBSS for 10 min at room temperature, filtered, and then immediately washed with 4 ml HBSS. The filters were air-dried and counted in a Beckman LS6500 liquid scintillation counter without fluor. WGA is a homodimer, molecular weight 43.2 kD, with 4 GlcNAc binding sites per dimer. For affinity calculations, we assume one RNA ligand binding site per monomer (two per dimer). […]

The target of data set [3] is T3, wheat germ agglutinin (WGA) (Triticum vulgare, UniProt P10968 P10968:27-197).
T3 sequence: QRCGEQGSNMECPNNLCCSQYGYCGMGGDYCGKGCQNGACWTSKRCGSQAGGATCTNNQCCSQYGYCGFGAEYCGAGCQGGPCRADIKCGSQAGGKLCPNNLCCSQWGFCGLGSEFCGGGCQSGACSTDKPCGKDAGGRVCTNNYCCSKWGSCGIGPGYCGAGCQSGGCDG
Put plainly: filter; HBSS, room temp; printed as 11.2, SEQ 40. As to conditions: tags: free lectin, E Y Laboratories; label: 32P. As for the experimental part:
as §1, with “fluor.” for “fluor. WGA is a homodimer, molecular weight 43.2 kD, with 4 GlcNAc binding sites per dimer. For affinity calculations, we assume one RNA ligand binding site per monomer (two per dimer).”
The dissociation constants for representative members of families 1–9 and orphan ligands were determined by nitrocellulose filter binding experiments and are listed in Table III. […]

Data set [4] has as its target T1, L-selectin (LS-Rg). Put plainly: filter; room temp; 0.65 nM at 37 C. As to conditions: tags: human IgG2 Fc fusion (provided by A. Varki); label: 32P; hairpin.
Data set [5] addresses T1, L-selectin (LS-Rg). Description: filter; apparently 37 C column; synthetic full-length 201 control 3.8 nM. The conditions noted are these: tags: human IgG2 Fc fusion (provided by A. Varki); label: 32P; hairpin.
The target of data set [6] is T1, L-selectin (LS-Rg). Put plainly: filter; room temp; 11.8 nM at 37 C. As to conditions: tags: human IgG2 Fc fusion (provided by A. Varki); label: 32P; hairpin.
Data set [7] concerns the target T4, E-selectin (ES-Rg) (Homo sapiens, UniProt P16581 P16581:22-556).
T4 chain: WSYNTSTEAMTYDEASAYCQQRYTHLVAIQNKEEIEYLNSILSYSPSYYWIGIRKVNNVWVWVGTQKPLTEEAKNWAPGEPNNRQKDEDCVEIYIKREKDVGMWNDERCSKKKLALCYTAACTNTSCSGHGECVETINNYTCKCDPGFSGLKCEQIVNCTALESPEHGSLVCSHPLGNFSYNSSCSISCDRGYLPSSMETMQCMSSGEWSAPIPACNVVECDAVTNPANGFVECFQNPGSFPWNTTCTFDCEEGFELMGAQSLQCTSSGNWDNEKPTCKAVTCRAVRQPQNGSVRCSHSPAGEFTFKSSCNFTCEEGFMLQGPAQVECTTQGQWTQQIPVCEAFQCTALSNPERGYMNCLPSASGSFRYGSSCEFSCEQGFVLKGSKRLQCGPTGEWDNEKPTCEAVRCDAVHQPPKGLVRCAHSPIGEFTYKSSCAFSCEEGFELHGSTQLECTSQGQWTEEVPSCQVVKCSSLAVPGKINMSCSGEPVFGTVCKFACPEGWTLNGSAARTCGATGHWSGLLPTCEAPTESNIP
Description: filter; room temp, Ca/Mg buffer. The conditions noted are these: tags: extracellular domain fused to human IgG1 Fc (provided by A. Varki); chain copies: 2 (dimeric Fc chimera, inferred). On the procedure:
(§2) RNA was reverse transcribed into cDNA by AMV reverse transcriptase at 48° C. for 60 min in 50 mM Tris-Cl pH (8.3), 60 mM NaCl, 6 mM Mg(OAc)_2, 10 mM DTT, 100 pmol DNA primer, 0.4 mM each of dNTPs, and 0.4 unit/µl AMV RT. […] C) Nitrocellulose Filter Partitioning As described in SELEX Patent Applications, the nitrocellulose filter partitioning method was used to determine the affinity of RNA ligands for WGA and for other proteins. Filter discs (nitrocellulose/cellulose acetate mixed matrix, 0.45 µm pore size, Millipore; or pure nitrocellulose, 0.45 µm pore size, Bio-Rad) were placed on a vacuum manifold and washed with 4 ml of HBSS buffer under vacuum. Reaction mixtures, containing ^32P labeled RNA pools and unlabeled WGA, were incubated in HBSS for 10 min at room temperature, filtered, and then immediately washed with 4 ml HBSS. The filters were air-dried and counted in a Beckman LS6500 liquid scintillation counter without fluor. WGA is a homodimer, molecular weight 43.2 kD, with 4 GlcNAc binding sites per dimer. For affinity calculations, we assume one RNA ligand binding site per monomer (two per dimer). The monomer concentration is defined as 2 times the dimer concentration. The equilibrium dissociation constant, K_d, for an RNA pool or specific ligand that binds monophasically is given by the equation $$K_d=[P_f][R_f]/[RP]$$
(§3) The affinity of representative cloned ligands for LS-Rg, ES-Rg, PS-Rg, CD22β-Rg and WGA was determined by nitrocellulose partitioning and the results shown in Table XIV. The ligands are highly specific for L-selectin.
(§4) *Kds were determined at room temperature.

Data set [8] concerns the target T5, P-selectin (PS-Rg) (Homo sapiens, UniProt P16109 P16109:42-321).
T5 chain: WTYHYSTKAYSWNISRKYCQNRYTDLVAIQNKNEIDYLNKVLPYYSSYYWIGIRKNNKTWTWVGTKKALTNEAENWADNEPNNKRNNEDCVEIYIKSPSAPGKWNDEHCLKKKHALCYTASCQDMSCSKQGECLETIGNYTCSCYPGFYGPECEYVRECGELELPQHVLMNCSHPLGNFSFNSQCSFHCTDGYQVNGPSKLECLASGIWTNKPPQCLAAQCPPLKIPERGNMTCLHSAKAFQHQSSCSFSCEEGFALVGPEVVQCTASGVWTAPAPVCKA
Description: filter; room temp, Ca/Mg buffer. The conditions noted are these: tags: lectin, EGF and first two CRD domains fused to human IgG1 Fc (provided by A. Varki); chain copies: 2 (dimeric Fc chimera, inferred). As for the experimental part: as §2, §3, §4

Data set [9] has as its target T1, L-selectin (LS-Rg). Put plainly: filter; room temp; 1.8 nM at 37 C. As to conditions: tags: human IgG2 Fc fusion (provided by A. Varki), label: 32P.
The target of data set [10] is T1, L-selectin (LS-Rg). Description: filter; room temp; 6.8 nM at 37 C. The conditions noted are these: tags: human IgG2 Fc fusion (provided by A. Varki); label: 32P; hairpin.
The target of data set [11] is T1, L-selectin (LS-Rg). Description: filter; room temp; 23.2 nM at 37 C. The conditions noted are these: tags: human IgG2 Fc fusion (provided by A. Varki); label: 32P; hairpin.
The target in data set [12] is T1, L-selectin (LS-Rg). Put plainly: filter; room temp; 8.4 nM at 37 C. The conditions noted are these: tags: human IgG2 Fc fusion (provided by A. Varki); label: 32P.
Data set [13] deals with T1, L-selectin (LS-Rg). Put plainly: filter; room temp; 6.0 nM at 37 C. As to conditions: tags: human IgG2 Fc fusion (provided by A. Varki); label: 32P.
Data set [14] has as its target T1, L-selectin (LS-Rg). Description: filter; room temp; 590 pM at 37 C. As to conditions: tags: human IgG2 Fc fusion (provided by A. Varki); label: 32P; hairpin.

B1: 109 (ssDNA)
DNA: CTACCTACGATCTGACTAGCCCACCGTGATGCACGATACATGAGGGTGTGTCAGCGCATGCTTACTCTCATGTAGTTCC
For B1, the Kd in [1] turned out to be 0.19 nM.

B2: 11.20 (ssRNA)
RNA: GGGAAAAGCGAAUCAUACACAAGAUUGGUCGUACUGGACAGAGCCGUGGUAGAGGGAUUGGGACAAAGUGUCAGCUCCGCCAGAGACCAACCGAGAA
modifications: 2'-NH2 all C and U
For B2, the Kd turned out to be 2200 nM in [2] and 1.4 nM in [3].

B3: 137 (ssDNA)
DNA: CTACCTACGATCTGACTAGCTACCCCTTGGGCCTCATAGACAAGGTCTTAAACGTTAGCGCTTACTCTCATGTAGTTCC
On to B3, for which, in [4], the Kd turned out to be 0.52 nM.

In the case of GTAACCAGTACAAGGTGCTAAACGTAATGGCTTCGGCTTAC (ssDNA) [201T3 (41-mer)], the Kd in data set [5] was determined as 43 nM.

B4: 111 (ssDNA)
DNA: CTACCTACGATCTGACTAGCTACACAAGGTGCTAAACGTAGAGCCAGATCGGATCTGAGCGCTTACTCTCATGTAGTTCC
Take B4: the Kd was found to be 0.33 nM in [6], 1200 nM in data set [7] and 840 nM in [8].

Take TAGCCAAGGTAACCAGTACAAGGTGCTAAACGTAATGGCTTCGGCTTAC (ssDNA) [201T1 (49-mer)]: the Kd in [5] stood at 4.8 nM.

B5: 181 (ssDNA)
DNA: CTACCTACGATCTGACTAGCCATCAAGGACTTTGCCCGAAACCCTAGGTTCACGTGTGGGGCTTACTCTCATGTAGTTCC
Take B5: the Kd in data set [9] came to 0.084 nM; in data set [7] it was 37 nM; in data set [8] it was 1600 nM.

B6: 139 (ssDNA)
DNA: CTACCTACGATCTGACTAGCGGACAAGGCACTCGACGTAGTTTATAACTCCCTCCGGGCCGCTTACTCTCATGTAGTTCC
For B6, the Kd in data set [10] was 0.21 nM.

B7: 112 (ssDNA)
DNA: CTACCTACGATCTGACTAGCCGCATCCACATAGTTCAAGGGGCTACACGAAATATTGCAGCTTACTCTCATGTAGTTCC
As for B7, in [11], the Kd is 0.3 nM.

B8: 214 (ssDNA)
DNA: CTACCTACGATCTGACTAGCTGATGCGACTTTAGTCGAACGTTACTGGGGCTCAGAGGACAGCTTACTCTCATGTAGTTCC
Consider B8, for which, in [12], the Kd was determined as 0.66 nM.

B9: 206 (ssDNA)
DNA: CTACCTACGATCTGACTAGCAGCGTTGTACGGGGTTACACACAACGATTTAGATGCTCTGCTTACTCTCATGTAGTTCC
On to B9, for which the Kd in data set [13] was found to be 0.33 nM; in data set [7] it was 100 nM; in [8] it was 600 nM.

B10: 179 (ssDNA)
DNA: CTACCTACGATCTGACTAGCCACATGCCTGACGCGGTACAAGGCCTGGACGTAACGTTGGCTTACTCTCATGTAGTTCC
The molecule B10 showed a Kd in [14] of 0.18 nM.

B11: 128 (ssDNA)
DNA: CTACCTACGATCTGACTAGCAGGACCAAGGTGTTAAACGGCTCCCCTGGCTATGCCTCTTGCTTACTCTCATGTAGTTCC
As for B11, in data set [9] (hairpin), the Kd was found to be 0.31 nM.

The values above are taken from patent US6001988, “High affinity nucleic acid ligands to lectins” (NeXstar Pharmaceuticals, Inc.).
